Data on one molecule can be found in publication PMC405831 (Journal of Insect Science, 2002).

The target in this assay is T1, Ecdysteroid receptor (EcR), ligand binding part (C-terminus of D- and E-domain) (UniProt P34021 400-655).
T1 sequence (looked up): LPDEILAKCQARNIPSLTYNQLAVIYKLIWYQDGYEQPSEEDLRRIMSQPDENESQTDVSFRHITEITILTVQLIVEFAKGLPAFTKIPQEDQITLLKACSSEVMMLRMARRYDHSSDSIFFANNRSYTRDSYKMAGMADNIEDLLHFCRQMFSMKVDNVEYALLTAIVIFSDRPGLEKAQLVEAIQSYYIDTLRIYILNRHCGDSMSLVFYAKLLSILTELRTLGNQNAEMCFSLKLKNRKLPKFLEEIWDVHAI
Kind of assay: native gel or EMSA.

B1: Ultraspiracle (USP), ligand binding part (C-terminus of D- and E-domain) (domain or fragment, UniProt P20153 230-508, looked up)
chain: MTNSVSRDFSIERIIEAEQRAETQCGDRALTFLRVGPYSTVQPDYKGAVSALCQVVNKQLFQMVEYARMMPHFAQVPLDDQVILLKAAWIELLIANVAWCSIVSLDDGGAGGGGGGLGHDGSFERRSPGLQPQQLFLNQSFSYHRNSAIKAGVSAIFDRILSELSVKMKRLNLDRRELSCLKAIILYNPDIRGIKSRAEIEMCREKVYACLDEHCRLEHPGDDGRFAQLLLRLPALRSISLKCQDHLFLFRITSDRPLEELFLEQLEAPPPPGLAMKLE
For B1, the “fold of the affinity constant of heterodimerization against homodimerization” value is roughly 10 fold.
